Assay results reported in patent US20230357348A1 (AstraZeneca / MedImmune, published 2023).
Starred links: 1 amine or outer side, 2 acyl side, 3 side chain; linkers in the order of their positions; H or OH if unused. Non-standard residues stand in square brackets, D forms with d. Groups on a side chain read outwards from the residue. No end group written: not given here. *: point of attachment. C20 diacid = O=C(O)CCCCCCCCCCCCCCCCCCC(=O)*; C18 diacid = O=C(O)CCCCCCCCCCCCCCCCC(=O)*; γGlu = O=C(O)[C@H](CCC(=O)[*:2])N[*:1]; αMeF = C[C@](N)(Cc1ccccc1)C(=O)O; AEEA = NCCOCCOCC(=O)O; Aib = CC(C)(N)C(=O)O

Assays:
[1] = biological target: human glucagon receptor (hGCGR) (human, UniProt P47871 26-477); experiment: cell-based or functional assay
[2] = biological target: human GLP-1 receptor (hGLP-1R) (human, UniProt P43220 24-463); experiment: cell-based or functional assay

human glucagon receptor (hGCGR), sequence (P47871 26-477): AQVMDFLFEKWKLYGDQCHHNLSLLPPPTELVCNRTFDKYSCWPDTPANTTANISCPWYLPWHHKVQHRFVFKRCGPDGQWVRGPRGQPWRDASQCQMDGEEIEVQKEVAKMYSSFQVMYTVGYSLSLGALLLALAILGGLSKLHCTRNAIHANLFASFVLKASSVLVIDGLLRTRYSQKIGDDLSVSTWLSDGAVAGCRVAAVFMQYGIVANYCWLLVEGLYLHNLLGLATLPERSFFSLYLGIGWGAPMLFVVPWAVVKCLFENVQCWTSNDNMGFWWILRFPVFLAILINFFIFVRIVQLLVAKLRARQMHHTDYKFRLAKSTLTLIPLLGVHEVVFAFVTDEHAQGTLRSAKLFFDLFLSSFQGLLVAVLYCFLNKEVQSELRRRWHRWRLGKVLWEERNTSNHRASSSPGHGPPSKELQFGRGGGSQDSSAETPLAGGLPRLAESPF

Row | Binder | hGluc-R EC50 (pM) [1] [pM] | hGLP-1R EC50 (pM) [2] [pM]
1 | H[Aib]QGTFTSDVSK[αMeF]LDSK([AEEA-AEEA-γGlu-C18 diacid])RARDFVRWLL[Aib]TE-OH (N-terminus assumed; SMILES CC(C)C[C@H](NC(=O)[C@H](Cc1c[nH]c2ccccc12)NC(=O)[C@H](CCCNC(=N)N)NC(=O)[C@@H](NC(=O)[C@H](Cc1ccccc1)NC(=O)[C@H](CC(=O)O)NC(=O)[C@H](CCCNC(=N)N)NC(=O)[C@H](C)NC(=O)[C@H](CCCNC(=N)N)NC(=O)[C@H](CCCCNC(=O)COCCOCCNC(=O)COCCOCCNC(=O)CC[C@H](NC(=O)CCCCCCCCCCCCCCCCC(=O)O)C(=O)O)NC(=O)[C@H](CO)NC(=O)[C@H](CC(=O)O)NC(=O)[C@H](CC(C)C)NC(=O)[C@](C)(Cc1ccccc1)NC(=O)[C@H](CCCCN)NC(=O)[C@H](CO)NC(=O)[C@@H](NC(=O)[C@H](CC(=O)O)NC(=O)[C@H](CO)NC(=O)[C@@H](NC(=O)[C@H](Cc1ccccc1)NC(=O)[C@@H](NC(=O)CNC(=O)[C@H](CCC(N)=O)NC(=O)C(C)(C)NC(=O)[C@@H](N)Cc1c[nH]cn1)[C@@H](C)O)[C@@H](C)O)C(C)C)C(C)C)C(=O)N[C@@H](CC(C)C)C(=O)NC(C)(C)C(=O)N[C@H](C(=O)N[C@@H](CCC(=O)O)C(=O)O)[C@@H](C)O) [Peptide 166] | 270 | 48
2 | HSQGS[αMeF]TSDVSK[αMeF]LDSK([AEEA-AEEA-γGlu-C18 diacid])AAQDFVQWIANT-NH2 (N-terminus assumed; SMILES CC[C@H](C)[C@H](NC(=O)[C@H](Cc1c[nH]c2ccccc12)NC(=O)[C@H](CCC(N)=O)NC(=O)[C@@H](NC(=O)[C@H](Cc1ccccc1)NC(=O)[C@H](CC(=O)O)NC(=O)[C@H](CCC(N)=O)NC(=O)[C@H](C)NC(=O)[C@H](C)NC(=O)[C@H](CCCCNC(=O)COCCOCCNC(=O)COCCOCCNC(=O)CC[C@H](NC(=O)CCCCCCCCCCCCCCCCC(=O)O)C(=O)O)NC(=O)[C@H](CO)NC(=O)[C@H](CC(=O)O)NC(=O)[C@H](CC(C)C)NC(=O)[C@](C)(Cc1ccccc1)NC(=O)[C@H](CCCCN)NC(=O)[C@H](CO)NC(=O)[C@@H](NC(=O)[C@H](CC(=O)O)NC(=O)[C@H](CO)NC(=O)[C@@H](NC(=O)[C@](C)(Cc1ccccc1)NC(=O)[C@H](CO)NC(=O)CNC(=O)[C@H](CCC(N)=O)NC(=O)[C@H](CO)NC(=O)[C@@H](N)Cc1c[nH]cn1)[C@@H](C)O)C(C)C)C(C)C)C(=O)N[C@@H](C)C(=O)N[C@@H](CC(N)=O)C(=O)N[C@H](C(N)=O)[C@@H](C)O) [Peptide 4] | 1170 | 240
3 | H[Aib]QGTFTSDVSK[αMeF]LDSK([AEEA-AEEA-γGlu-C18 diacid])RAQDFVRWLL[Aib]E-OH (N-terminus assumed; SMILES CC(C)C[C@H](NC(=O)[C@H](Cc1c[nH]c2ccccc12)NC(=O)[C@H](CCCNC(=N)N)NC(=O)[C@@H](NC(=O)[C@H](Cc1ccccc1)NC(=O)[C@H](CC(=O)O)NC(=O)[C@H](CCC(N)=O)NC(=O)[C@H](C)NC(=O)[C@H](CCCNC(=N)N)NC(=O)[C@H](CCCCNC(=O)COCCOCCNC(=O)COCCOCCNC(=O)CC[C@H](NC(=O)CCCCCCCCCCCCCCCCC(=O)O)C(=O)O)NC(=O)[C@H](CO)NC(=O)[C@H](CC(=O)O)NC(=O)[C@H](CC(C)C)NC(=O)[C@](C)(Cc1ccccc1)NC(=O)[C@H](CCCCN)NC(=O)[C@H](CO)NC(=O)[C@@H](NC(=O)[C@H](CC(=O)O)NC(=O)[C@H](CO)NC(=O)[C@@H](NC(=O)[C@H](Cc1ccccc1)NC(=O)[C@@H](NC(=O)CNC(=O)[C@H](CCC(N)=O)NC(=O)C(C)(C)NC(=O)[C@@H](N)Cc1c[nH]cn1)[C@@H](C)O)[C@@H](C)O)C(C)C)C(C)C)C(=O)N[C@@H](CC(C)C)C(=O)NC(C)(C)C(=O)N[C@@H](CCC(=O)O)C(=O)O) [Peptide 152] | 20.4 | 11.9
4 | H[Aib]QGTFTSDVSK[αMeF]LDSK([AEEA-AEEA-γGlu-C20 diacid])RAQDFVRWLL[Aib]E-OH (N-terminus assumed; SMILES CC(C)C[C@H](NC(=O)[C@H](Cc1c[nH]c2ccccc12)NC(=O)[C@H](CCCNC(=N)N)NC(=O)[C@@H](NC(=O)[C@H](Cc1ccccc1)NC(=O)[C@H](CC(=O)O)NC(=O)[C@H](CCC(N)=O)NC(=O)[C@H](C)NC(=O)[C@H](CCCNC(=N)N)NC(=O)[C@H](CCCCNC(=O)COCCOCCNC(=O)COCCOCCNC(=O)CC[C@H](NC(=O)CCCCCCCCCCCCCCCCCCC(=O)O)C(=O)O)NC(=O)[C@H](CO)NC(=O)[C@H](CC(=O)O)NC(=O)[C@H](CC(C)C)NC(=O)[C@](C)(Cc1ccccc1)NC(=O)[C@H](CCCCN)NC(=O)[C@H](CO)NC(=O)[C@@H](NC(=O)[C@H](CC(=O)O)NC(=O)[C@H](CO)NC(=O)[C@@H](NC(=O)[C@H](Cc1ccccc1)NC(=O)[C@@H](NC(=O)CNC(=O)[C@H](CCC(N)=O)NC(=O)C(C)(C)NC(=O)[C@@H](N)Cc1c[nH]cn1)[C@@H](C)O)[C@@H](C)O)C(C)C)C(C)C)C(=O)N[C@@H](CC(C)C)C(=O)NC(C)(C)C(=O)N[C@@H](CCC(=O)O)C(=O)O) [Peptide 153] | 99 | 41.2
5 | H[Aib]HGS[αMeF]TSDVSK[αMeF]LDSK([AEEA-AEEA-γGlu-C18 diacid])AAQD[αMeF]VEWIAN-NH2 (N-terminus assumed; SMILES CC[C@H](C)[C@H](NC(=O)[C@H](Cc1c[nH]c2ccccc12)NC(=O)[C@H](CCC(=O)O)NC(=O)[C@@H](NC(=O)[C@](C)(Cc1ccccc1)NC(=O)[C@H](CC(=O)O)NC(=O)[C@H](CCC(N)=O)NC(=O)[C@H](C)NC(=O)[C@H](C)NC(=O)[C@H](CCCCNC(=O)COCCOCCNC(=O)COCCOCCNC(=O)CC[C@H](NC(=O)CCCCCCCCCCCCCCCCC(=O)O)C(=O)O)NC(=O)[C@H](CO)NC(=O)[C@H](CC(=O)O)NC(=O)[C@H](CC(C)C)NC(=O)[C@](C)(Cc1ccccc1)NC(=O)[C@H](CCCCN)NC(=O)[C@H](CO)NC(=O)[C@@H](NC(=O)[C@H](CC(=O)O)NC(=O)[C@H](CO)NC(=O)[C@@H](NC(=O)[C@](C)(Cc1ccccc1)NC(=O)[C@H](CO)NC(=O)CNC(=O)[C@H](Cc1c[nH]cn1)NC(=O)C(C)(C)NC(=O)[C@@H](N)Cc1c[nH]cn1)[C@@H](C)O)C(C)C)C(C)C)C(=O)N[C@@H](C)C(=O)N[C@@H](CC(N)=O)C(N)=O) [Peptide 6] | 516 | 568
6 | H[Aib]QGTFTSDVSK[αMeF]LDSK([AEEA-AEEA-γGlu-C20 diacid])RAQDFVRWLL[Aib]TE-OH (N-terminus assumed; SMILES CC(C)C[C@H](NC(=O)[C@H](Cc1c[nH]c2ccccc12)NC(=O)[C@H](CCCNC(=N)N)NC(=O)[C@@H](NC(=O)[C@H](Cc1ccccc1)NC(=O)[C@H](CC(=O)O)NC(=O)[C@H](CCC(N)=O)NC(=O)[C@H](C)NC(=O)[C@H](CCCNC(=N)N)NC(=O)[C@H](CCCCNC(=O)COCCOCCNC(=O)COCCOCCNC(=O)CC[C@H](NC(=O)CCCCCCCCCCCCCCCCCCC(=O)O)C(=O)O)NC(=O)[C@H](CO)NC(=O)[C@H](CC(=O)O)NC(=O)[C@H](CC(C)C)NC(=O)[C@](C)(Cc1ccccc1)NC(=O)[C@H](CCCCN)NC(=O)[C@H](CO)NC(=O)[C@@H](NC(=O)[C@H](CC(=O)O)NC(=O)[C@H](CO)NC(=O)[C@@H](NC(=O)[C@H](Cc1ccccc1)NC(=O)[C@@H](NC(=O)CNC(=O)[C@H](CCC(N)=O)NC(=O)C(C)(C)NC(=O)[C@@H](N)Cc1c[nH]cn1)[C@@H](C)O)[C@@H](C)O)C(C)C)C(C)C)C(=O)N[C@@H](CC(C)C)C(=O)NC(C)(C)C(=O)N[C@H](C(=O)N[C@@H](CCC(=O)O)C(=O)O)[C@@H](C)O) [Peptide 151] | 178 | 111
7 | H[Aib]QGS[αMeF]TSDVSK[αMeF]LDSK([AEEA-AEEA-γGlu-γGlu-C18 diacid])AAQD[αMeF]VQ[Aib]IAN-NH2 (N-terminus assumed; SMILES CC[C@H](C)[C@H](NC(=O)C(C)(C)NC(=O)[C@H](CCC(N)=O)NC(=O)[C@@H](NC(=O)[C@](C)(Cc1ccccc1)NC(=O)[C@H](CC(=O)O)NC(=O)[C@H](CCC(N)=O)NC(=O)[C@H](C)NC(=O)[C@H](C)NC(=O)[C@H](CCCCNC(=O)COCCOCCNC(=O)COCCOCCNC(=O)CC[C@H](NC(=O)CC[C@H](NC(=O)CCCCCCCCCCCCCCCCC(=O)O)C(=O)O)C(=O)O)NC(=O)[C@H](CO)NC(=O)[C@H](CC(=O)O)NC(=O)[C@H](CC(C)C)NC(=O)[C@](C)(Cc1ccccc1)NC(=O)[C@H](CCCCN)NC(=O)[C@H](CO)NC(=O)[C@@H](NC(=O)[C@H](CC(=O)O)NC(=O)[C@H](CO)NC(=O)[C@@H](NC(=O)[C@](C)(Cc1ccccc1)NC(=O)[C@H](CO)NC(=O)CNC(=O)[C@H](CCC(N)=O)NC(=O)C(C)(C)NC(=O)[C@@H](N)Cc1c[nH]cn1)[C@@H](C)O)C(C)C)C(C)C)C(=O)N[C@@H](C)C(=O)N[C@@H](CC(N)=O)C(N)=O) [Peptide 5] | 7140 | 283
8 | H[Aib]QGTFTSDVSK[αMeF]LDSK([AEEA-AEEA-γGlu-C18 diacid])RAQDFVQWLL[Aib]TE-OH (N-terminus assumed; SMILES CC(C)C[C@H](NC(=O)[C@H](Cc1c[nH]c2ccccc12)NC(=O)[C@H](CCC(N)=O)NC(=O)[C@@H](NC(=O)[C@H](Cc1ccccc1)NC(=O)[C@H](CC(=O)O)NC(=O)[C@H](CCC(N)=O)NC(=O)[C@H](C)NC(=O)[C@H](CCCNC(=N)N)NC(=O)[C@H](CCCCNC(=O)COCCOCCNC(=O)COCCOCCNC(=O)CC[C@H](NC(=O)CCCCCCCCCCCCCCCCC(=O)O)C(=O)O)NC(=O)[C@H](CO)NC(=O)[C@H](CC(=O)O)NC(=O)[C@H](CC(C)C)NC(=O)[C@](C)(Cc1ccccc1)NC(=O)[C@H](CCCCN)NC(=O)[C@H](CO)NC(=O)[C@@H](NC(=O)[C@H](CC(=O)O)NC(=O)[C@H](CO)NC(=O)[C@@H](NC(=O)[C@H](Cc1ccccc1)NC(=O)[C@@H](NC(=O)CNC(=O)[C@H](CCC(N)=O)NC(=O)C(C)(C)NC(=O)[C@@H](N)Cc1c[nH]cn1)[C@@H](C)O)[C@@H](C)O)C(C)C)C(C)C)C(=O)N[C@@H](CC(C)C)C(=O)NC(C)(C)C(=O)N[C@H](C(=O)N[C@@H](CCC(=O)O)C(=O)O)[C@@H](C)O) [Peptide 150] | 355 | 166
